Literature values in PMC3236687.

Key:
[1] = molecular target: endothelin receptors (IMCD cells) (Rattus norvegicus) (UniProt P26684); assay: radioligand
[2] = molecular target: endothelin receptor (renal papillary membranes) (Sus scrofa) (UniProt P35463); assay: radioligand
Chain of UniProt P35463 (P35463 27-443): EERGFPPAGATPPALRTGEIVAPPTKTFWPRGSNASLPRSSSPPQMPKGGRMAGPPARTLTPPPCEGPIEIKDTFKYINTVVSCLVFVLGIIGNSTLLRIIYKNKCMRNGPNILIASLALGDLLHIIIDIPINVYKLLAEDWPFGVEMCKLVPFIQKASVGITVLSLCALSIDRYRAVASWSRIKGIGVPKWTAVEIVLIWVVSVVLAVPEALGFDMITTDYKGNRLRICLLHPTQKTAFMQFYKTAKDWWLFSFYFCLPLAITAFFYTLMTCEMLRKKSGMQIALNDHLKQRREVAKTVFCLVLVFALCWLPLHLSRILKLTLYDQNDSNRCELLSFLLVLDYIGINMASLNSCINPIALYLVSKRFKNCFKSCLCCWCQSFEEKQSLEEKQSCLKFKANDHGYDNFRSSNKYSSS

Chain of UniProt P26684 (P26684 21-426, chain 1 of 2): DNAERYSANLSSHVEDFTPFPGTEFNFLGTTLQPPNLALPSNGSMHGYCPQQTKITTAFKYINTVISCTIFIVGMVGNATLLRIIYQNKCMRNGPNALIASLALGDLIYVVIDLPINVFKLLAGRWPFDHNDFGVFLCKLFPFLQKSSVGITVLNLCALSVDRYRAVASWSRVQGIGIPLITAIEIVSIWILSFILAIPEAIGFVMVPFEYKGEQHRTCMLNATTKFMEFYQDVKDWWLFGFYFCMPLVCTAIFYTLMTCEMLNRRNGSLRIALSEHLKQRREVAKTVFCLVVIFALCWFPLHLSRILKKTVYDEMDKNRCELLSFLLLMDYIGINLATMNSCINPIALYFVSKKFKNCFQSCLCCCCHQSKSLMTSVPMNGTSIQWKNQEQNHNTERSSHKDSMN
Chain of UniProt P26684 (P21451 27-442, chain 2 of 2, further chain): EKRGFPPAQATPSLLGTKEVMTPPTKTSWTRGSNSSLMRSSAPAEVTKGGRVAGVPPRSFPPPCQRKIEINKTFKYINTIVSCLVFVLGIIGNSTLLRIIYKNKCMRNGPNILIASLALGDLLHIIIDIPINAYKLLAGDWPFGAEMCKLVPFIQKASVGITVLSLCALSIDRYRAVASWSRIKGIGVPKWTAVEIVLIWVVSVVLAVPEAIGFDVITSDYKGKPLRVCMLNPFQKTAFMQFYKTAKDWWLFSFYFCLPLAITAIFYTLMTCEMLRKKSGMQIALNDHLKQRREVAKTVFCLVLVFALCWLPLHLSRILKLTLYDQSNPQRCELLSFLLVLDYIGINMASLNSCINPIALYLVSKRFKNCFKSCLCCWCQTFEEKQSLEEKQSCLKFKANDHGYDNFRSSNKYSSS

Kd [1]: 0.218 nM
Kd [2]: 0.137 nM
Substance: ET-1 (from UniProt P05305)
